The values below are quoted from earlier work in paper PMC7143316.

Some targets named below: Kv1.2 (Homo sapiens) (UniProt P16389); Kv1.3 (Homo sapiens) (UniProt P22001); Kv1.1 (Homo sapiens) (UniProt Q09470).
UniProt Q09470, sequence (Q09470 whole entry): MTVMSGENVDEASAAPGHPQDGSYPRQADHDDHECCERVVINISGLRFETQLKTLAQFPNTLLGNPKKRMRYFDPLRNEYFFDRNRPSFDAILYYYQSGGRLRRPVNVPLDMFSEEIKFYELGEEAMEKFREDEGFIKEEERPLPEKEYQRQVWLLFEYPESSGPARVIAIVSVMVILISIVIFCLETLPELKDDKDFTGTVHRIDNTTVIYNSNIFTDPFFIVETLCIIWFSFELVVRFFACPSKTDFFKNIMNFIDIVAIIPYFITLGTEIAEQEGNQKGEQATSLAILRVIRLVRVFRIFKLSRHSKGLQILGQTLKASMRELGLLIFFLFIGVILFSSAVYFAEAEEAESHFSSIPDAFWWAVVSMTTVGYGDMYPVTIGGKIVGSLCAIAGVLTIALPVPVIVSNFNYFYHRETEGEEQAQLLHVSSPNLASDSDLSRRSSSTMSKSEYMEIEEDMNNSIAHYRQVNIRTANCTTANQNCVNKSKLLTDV
UniProt P16389, sequence (P16389 whole entry): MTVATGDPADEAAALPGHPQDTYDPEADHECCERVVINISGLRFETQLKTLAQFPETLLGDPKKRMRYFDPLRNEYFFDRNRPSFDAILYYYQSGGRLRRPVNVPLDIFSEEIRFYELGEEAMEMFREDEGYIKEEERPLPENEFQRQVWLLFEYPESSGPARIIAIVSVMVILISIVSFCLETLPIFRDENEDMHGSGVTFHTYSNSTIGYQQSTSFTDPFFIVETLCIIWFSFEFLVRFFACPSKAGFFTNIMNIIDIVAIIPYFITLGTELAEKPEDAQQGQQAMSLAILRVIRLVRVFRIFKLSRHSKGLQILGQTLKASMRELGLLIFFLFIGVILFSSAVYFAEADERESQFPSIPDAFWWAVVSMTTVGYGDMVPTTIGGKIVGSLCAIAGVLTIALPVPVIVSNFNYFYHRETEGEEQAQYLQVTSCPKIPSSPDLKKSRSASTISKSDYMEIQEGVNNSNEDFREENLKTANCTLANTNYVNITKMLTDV
UniProt P22001, sequence (P22001 whole entry): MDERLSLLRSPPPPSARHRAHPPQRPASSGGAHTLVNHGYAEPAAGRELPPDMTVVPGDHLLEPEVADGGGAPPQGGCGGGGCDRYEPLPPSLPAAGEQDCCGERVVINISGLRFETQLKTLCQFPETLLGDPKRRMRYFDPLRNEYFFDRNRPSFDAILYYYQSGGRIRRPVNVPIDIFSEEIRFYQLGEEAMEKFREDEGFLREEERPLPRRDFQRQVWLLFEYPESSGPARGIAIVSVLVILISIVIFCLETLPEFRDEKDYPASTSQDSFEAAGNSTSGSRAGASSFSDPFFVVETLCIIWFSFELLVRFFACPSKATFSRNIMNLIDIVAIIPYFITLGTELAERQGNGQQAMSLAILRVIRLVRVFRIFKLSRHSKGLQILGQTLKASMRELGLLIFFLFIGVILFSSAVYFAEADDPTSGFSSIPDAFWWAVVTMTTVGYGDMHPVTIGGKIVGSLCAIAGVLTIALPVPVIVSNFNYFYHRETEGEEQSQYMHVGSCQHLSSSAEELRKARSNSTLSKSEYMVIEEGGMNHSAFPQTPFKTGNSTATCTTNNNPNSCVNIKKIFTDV

For BgK (from UniProt P29186), the Kd with Kv1.2 (Homo sapiens) was 0.015 µM; with Kv1.3 (Homo sapiens), 0.01 µM; in the series with Kv1.1 (Homo sapiens), 0.006 µM.
